Assay results as given in patent publication US20220259294A1 (published 2022).

T1: IHF from Haemophilus influenzae (Hi) (Haemophilus influenzae)
T1 chain: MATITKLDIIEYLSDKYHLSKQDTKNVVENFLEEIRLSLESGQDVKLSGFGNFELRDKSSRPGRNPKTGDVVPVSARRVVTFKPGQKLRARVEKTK


Columns and labels:
[1] = target: T1, IHF from Haemophilus influenzae (Hi); experiment: ELISA
[2] = target: T2, IHF from Klebsiella pneumoniae (Kp) (Klebsiella pneumoniae); experiment: ELISA
T2 construct: Recombinant, His-tagged, made in HEK293 cells; also called IHF (Kp)

[3] = target: T1, IHF from Haemophilus influenzae (Hi); experiment: ForteBio Octet QK biosensor (BLI), ratio of on and off rates
[4] = target: T2, IHF from Klebsiella pneumoniae (Kp); experiment: as above

T2 sequence (A6TAI1 whole entry, chain 1 of 2): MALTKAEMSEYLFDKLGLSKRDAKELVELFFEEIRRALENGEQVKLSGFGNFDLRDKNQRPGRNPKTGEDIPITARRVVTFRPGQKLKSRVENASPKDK
T2 sequence (A6T704 whole entry, chain 2 of 2, further chain): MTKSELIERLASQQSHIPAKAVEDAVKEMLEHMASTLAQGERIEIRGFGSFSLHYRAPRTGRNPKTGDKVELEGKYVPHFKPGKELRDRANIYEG

Row | Binder | OD [1] | OD [2] | Kd [3] | Kd [4]
1 | TRL1232 (antibody, V domains shown) VH: QVQLVESGAEVKKPGALVKVSCKASGYTFSGYYMHWVRQAPGQGLEWMGWINPKSGGTKYAQKFQGRVTMTRDTSISTAYMELSRLRSDDTAVYFCARGGPSNLERFLERLQPRYSYDDKYAMDVWGQGTTVTVSS VL: DIVMTQSPGTLSLSPGARATLSCRASQSVSSIYLAWYQQKPGQAPRLLIFGASSRATGIPDRFSGSGSGTDFTLTISRLEPEDFAVYYCQQYGSSPYTFGQGTKLEIKR | 0.1 OD | 0.1 OD | – | –
2 | TRL1087 (antibody, V domains shown) VH: QVQLLESGPGLVRPSDTLSLTCTFSADLSTNAYWTWIRQPPGKGLEWIGYMSHSGGRDYNPSFNRRVTISVDTSKNQVFLRLTSVTSADTAVYFCVREVGSYYDYWGQGILVTVSS VL: DIEMTQSPSSLSASVGDRITITCRASQGISTWLAWYQQKPGKAPKSLIFSTSSLHSGVPSKFSGSGSGTDFTLTITNLQPEDFATYYCQQKWETPYSFGQGTKLDMIR | 0.06 OD | 0.06 OD | – | –
3 | TRL1218 (antibody, V domains shown) VH: QVQLLESGADMVQPGRSLRLSCAASGFNFRTYAMHWVRQAPGKGLEWVAVMSHDGYTKYYSDSVRGQFTISRDNSKNTLYLQMNNLRPDDTAIYYCARGLTGLSVGFDYWGQGTLVTVSS VL: DIVLTQSASVSGSPGQSITISCTGTSSDVGGYNYVSWYQQHPGKAPKLMIYDVTTRPSGVSDRFSGSKSGNTASLTISGLQAEDEADYYCSSYSSGSTPALFGGGTQLTVL | 0.04 OD | 0.06 OD | – | –
4 | TRL1230 (antibody, V domains shown) VH: QVQLVQSGGGLVKPGGSLRLSCGASGFNLSSYSMNWVRQAPGKGLEWVSSISSRSSYIYYADSVQGRFTISRDNAKNSLYLQMNSLRAEDTAIYYCARVSPSTYYYYGMDVWGQGTTVTVSS VL: DIVLTQPSSVSVSPGQTARITCSGDELPKQYAYWYQQKPGQAPVLVIYKDNERPSGIPERFSGSSSGTTVTLTISGVQAEDEADYYCQSADSSGTYVVFGGGTKLTVL | 0.06 OD | 0.07 OD | – | –
5 | TRL1215 (antibody, V domains shown) VH: QVQLVESGTEVKNPGASVKVSCTASGYKFDEYGVSWVRQSPGQGLEWMGWISVYNGKTNYSQNFQGRLTLTTETSTDTAYMELTSLRPDDTAVYYCATDKNWFDPWGPGTLVTVSS VL: DIVMTQSPSASGSPGQSITISCTGTNTDYNYVSWYQHHPGKAPKVIIYDVKKRPSGVPSRFSGSRSGNTATLTVSGLQTEDEADYYCVSYADNNHYVFGSGTKVTVL | 1.9 OD | 1.6 OD | – | –
6 | TRL1216 (antibody, V domains shown) VH: QVQLVESGGGVVQPGGSLRVSCAASAFSFRDYGIHWVRQAPGKGLQWVAVISHDGGKKFYADSVRGRFTISRDNSENTLYLQMNSLRSDDTAVYYCARLVASCSGSTCTTQPAAFDIWGPGTLVTVSS VL: DIMLTQPPSVSVSPGQTARITCSGDALPKKYTYWYQQKSGQAPVLLIYEDRKRPSEIPERFSAFTSWTTATLTITGAQVRDEADYYCYSTDISGDIGVFGGGTKLTVL | 0.06 OD | 0.4 OD | – | –
7 | TRL1070 (antibody, V domains shown) VH: QVQLVQSGGTLVQPGGSLRLSCAASGFTFSYYSMSWVRQAPGKGLEWVANIKHDGTERNYVDSVKGRFTISRDNSEKSLYLQMNSLRAEDTAVYYCAKYYYGAGTNYPLKYWGQGTRVTVSS VL: DILMTQSPSSLSASVGDRVTITCRASQGIRNDLGWYQQKPGKAPKLLIYAASSLQSGVPSRFSGSGSGTDFTLTISSLQPEDFATYYCLQDYNYPLTFGGGTKVEIKR | 0.11 OD | 0.5 OD | – | –
8 | TRL1068 (antibody, V domains shown) VH: QVQLVESGPGLVKPSETLSLTCRVSGDSNRPSYWSWIRQAPGKAMEWIGYVYDSGVTIYNPSLKGRVTISLDTSKTRFSLKLTSVIAADTAVYYCARERFDRTSYKSWWGQGTQVTVSS VL: DIVLTQAPGTLSLSPGDRATLSCRASQRLGGTSLAWYQHRSGQAPRLILYGTSNRATDTPDRFSGSGSGTDFVLTISSLEPEDFAVYYCQQYGSPPYTFGQGTTLDIK | – | – | 350 nM | 7 nM
